Measurements reported in paper PMC9352680, “A comprehensive thermodynamic model for RNA binding by the Saccharomyces cerevisiae Pumilio protein PUF4”.
Positions count from the first letter of the chain named. In names and notes the source's numbering stands.

B1: Ib_S2_P5E.1_K5.1_C5.1_H5.1_A5.1_F5.1_[T8C]_[T9C]_T5.1 (ssRNA)
RNA: UUUGAUUAAUAUGAUAUCGUUCUUUCUUGUAUUACCAUUCUUUCUCGAUAUCAUAUUAAUCUUU
B2: Ib_S2_P5E.1_K5.1_C5.1_H5.1_A5.1_F5.1_[T8C]_[A10G]_T5.1 (ssRNA)
RNA: B1 RNA with C36U, A37G
B3: Ib_S2_P5E.1_K5.1_C5.1_H5.1_A5.1_F5.1_[T8C]_[A10T]_T5.1 (ssRNA)
RNA: B1 RNA with C36U, A37U
B4: Ia_S1_P3E.1_K3.1_C3.1_H3.1_[T1A]_A3.1_F3.1_T3.1 (ssRNA)
RNA: UCUCUUAGUAUAUAUCUCUU
B5: Ib_S2_P4E.1_K4.1_C4.1_H4.1_[T1A]_A4.1_[T5A]_F4.1_T4.1 (ssRNA)
RNA: UUUGAUUAAUAUGAUAUCGUUCUUUCUAGUAAAUUAUUCUUUCUCGAUAUCAUAUUAAUCUUU
B6: Ib_S2_P4E.1_K4.1_C4.1_H4.1_[T1G]_A4.1_[A6T]_F4.1_T4.1 (ssRNA)
RNA: B5 RNA with A28G, A32U, A33U
B7: Ib_S2_P4E.1_K4.1_C4.1_H4.1_[A4C]_A4.1_[A6T]_F4.1_T4.1 (ssRNA)
RNA: B5 RNA with A28U, A31C, A32U, A33U
B8: Ic_S2_P4E.1_K4.1_C4.1_H4.1_A4.1_[A6G]_[T7C]_F4.1_T4.1 (ssRNA)
RNA: B5 RNA with A28U, A32U, A33G, U34C
B9: Ib_S2_P4E.1_K4.1_C4.1_H4.1_[T1C]_A4.1_[A6G]_F4.1_T4.1 (ssRNA)
RNA: B5 RNA with A28C, A32U, A33G
B10: Ib_S2_P4E.1_K4.1_C4.1_H4.1_[T1A]_A4.1_[T7G]_F4.1_T4.1 (ssRNA)
RNA: B5 RNA with A32U, U34G
B11: Ib_S2_P4E.1_K4.1_C4.1_H4.1_A4.1_[T5C]_[A6C]_F4.1_T4.1 (ssRNA)
RNA: B5 RNA with A28U, A32C, A33C
B12: Ic_S2_P4E.1_K4.1_C4.1_H4.1_A4.1_[A6T]_[T7A]_F4.1_T4.1 (ssRNA)
RNA: B5 RNA with A28U, A32U, A33U, U34A
B13: Ib_S2_P4E.1_K4.1_C4.1_H4.1_A4.1_[T5C]_[T7G]_F4.1_T4.1 (ssRNA)
RNA: B5 RNA with A28U, A32C, U34G
B14: Ib_S2_P4E.1_K4.1_C4.1_H4.1_[A4T]_A4.1_[A6C]_F4.1_T4.1 (ssRNA)
RNA: B5 RNA with A28U, A31U, A32U, A33C
B15: Ib_S2_P4E.1_K4.1_C4.1_H4.1_[T3C]_A4.1_[A6C]_F4.1_T4.1 (ssRNA)
RNA: B5 RNA with A28U, U30C, A32U, A33C
B16: Ib_S2_P4E.1_K4.1_C4.1_H4.1_[G2T]_A4.1_[A6C]_F4.1_T4.1 (ssRNA)
RNA: B5 RNA with A28U, G29U, A32U, A33C
B17: Ib_S2_P4E.1_K4.1_C4.1_H4.1_A4.1_[T5G]_[A6T]_F4.1_T4.1 (ssRNA)
RNA: B5 RNA with A28U, A32G, A33U
B18: Ia_S2_P4E.1_K4.1_C4.1_H4.1_A4.1_[A6G]_F4.1_T4.1 (ssRNA)
RNA: B5 RNA with A28U, A32U, A33G
B19: Ic_S2_P4E.1_K4.1_C4.1_H4.1_A4.1_[T5A]_F4.1_T4.1 (ssRNA)
RNA: B5 RNA with A28U
B20: Ib_S2_P4E.1_K4.1_C4.1_H4.1_[A4G]_A4.1_[A6T]_F4.1_T4.1 (ssRNA)
RNA: B5 RNA with A28U, A31G, A32U, A33U
B21: Ic_S2_P4E.1_K4.1_C4.1_H4.1_A4.1_[T5A]_[A6T]_F4.1_T4.1 (ssRNA)
RNA: B5 RNA with A28U, A33U
B22: Ib_S2_P4E.1_K4.1_C4.1_H4.1_A4.1_[T5C]_[T7C]_F4.1_T4.1 (ssRNA)
RNA: B5 RNA with A28U, A32C, U34C
B23: Ic_S2_P4E.1_K4.1_C4.1_H4.1_A4.1_[A6C]_[T7C]_F4.1_T4.1 (ssRNA)
RNA: B5 RNA with A28U, A32U, A33C, U34C
B24: Ib_S2_P4E.1_K4.1_C4.1_H4.1_A4.1_[T5A]_[A6C]_F4.1_T4.1 (ssRNA)
RNA: B5 RNA with A28U, A33C
B25: Ib_S2_P4E.1_K4.1_C4.1_H4.1_[A4T]_A4.1_[A6G]_F4.1_T4.1 (ssRNA)
RNA: B5 RNA with A28U, A31U, A32U, A33G
B26: Ib_S2_P4E.1_K4.1_C4.1_H4.1_A4.1_[T5A]_[T7C]_F4.1_T4.1 (ssRNA)
RNA: B5 RNA with A28U, U34C
B27: Ib_S2_P4E.1_K4.1_C4.1_H4.1_[A4C]_A4.1_[T7A]_F4.1_T4.1 (ssRNA)
RNA: B5 RNA with A28U, A31C, A32U, U34A
B28: Ib_S2_P4E.1_K4.1_C4.1_H4.1_A4.1_[A6C]_[T7G]_F4.1_T4.1 (ssRNA)
RNA: B5 RNA with A28U, A32U, A33C, U34G
B29: Ib_S2_P4E.1_K4.1_C4.1_H4.1_[G2A]_A4.1_[A6C]_F4.1_T4.1 (ssRNA)
RNA: B5 RNA with A28U, G29A, A32U, A33C
B30: Ib_S2_P4E.1_K4.1_C4.1_H4.1_A4.1_[T5A]_[T7A]_F4.1_T4.1 (ssRNA)
RNA: B5 RNA with A28U, U34A
B31: Ib_S2_P4E.1_K4.1_C4.1_H4.1_[T1C]_A4.1_[T7G]_F4.1_T4.1 (ssRNA)
RNA: B5 RNA with A28C, A32U, U34G
B32: Ib_S2_P4E.1_K4.1_C4.1_H4.1_[A4T]_A4.1_[T7G]_F4.1_T4.1 (ssRNA)
RNA: B5 RNA with A28U, A31U, A32U, U34G
B33: Ib_S2_P4E.1_K4.1_C4.1_H4.1_[G2A]_A4.1_[T7G]_F4.1_T4.1 (ssRNA)
RNA: B5 RNA with A28U, G29A, A32U, U34G
B34: Ib_S2_P4E.1_K4.1_C4.1_H4.1_[A4T]_A4.1_[T7C]_F4.1_T4.1 (ssRNA)
RNA: B5 RNA with A28U, A31U, A32U, U34C
B35: Ib_S2_P4E.1_K4.1_C4.1_H4.1_[A4C]_A4.1_[T7C]_F4.1_T4.1 (ssRNA)
RNA: B5 RNA with A28U, A31C, A32U, U34C
B36: Ia_S2_P4E.1_K4.1_C4.1_H4.1_[A4C]_A4.1_F4.1_T4.1 (ssRNA)
RNA: B5 RNA with A28U, A31C, A32U
B37: Ic_S2_P4E.1_K4.1_C4.1_H4.1_A4.1_[A6T]_[T7C]_F4.1_T4.1 (ssRNA)
RNA: B5 RNA with A28U, A32U, A33U, U34C
B38: Ib_S2_P4E.1_K4.1_C4.1_H4.1_[T3C]_A4.1_[A6G]_F4.1_T4.1 (ssRNA)
RNA: B5 RNA with A28U, U30C, A32U, A33G
B39: Ib_S2_P4E.1_K4.1_C4.1_H4.1_[T1C]_A4.1_[A6T]_F4.1_T4.1 (ssRNA)
RNA: B5 RNA with A28C, A32U, A33U
B40: Ib_S2_P4E.1_K4.1_C4.1_H4.1_[T1G]_A4.1_[T7A]_F4.1_T4.1 (ssRNA)
RNA: B5 RNA with A28G, A32U, U34A
B41: Ib_S2_P4E.1_K4.1_C4.1_H4.1_[G2T]_A4.1_[A6T]_F4.1_T4.1 (ssRNA)
RNA: B5 RNA with A28U, G29U, A32U, A33U
B42: Ib_S2_P4E.1_K4.1_C4.1_H4.1_[T3C]_A4.1_[T5C]_F4.1_T4.1 (ssRNA)
RNA: B5 RNA with A28U, U30C, A32C
B43: Ib_S2_P4E.1_K4.1_C4.1_H4.1_[G2T]_A4.1_[T5A]_F4.1_T4.1 (ssRNA)
RNA: B5 RNA with A28U, G29U
B44: Ib_S2_P4E.1_K4.1_C4.1_H4.1_[G2C]_A4.1_[A6G]_F4.1_T4.1 (ssRNA)
RNA: B5 RNA with A28U, G29C, A32U, A33G
B45: Ib_S2_P4E.1_K4.1_C4.1_H4.1_[G2T]_A4.1_[A6G]_F4.1_T4.1 (ssRNA)
RNA: B5 RNA with A28U, G29U, A32U, A33G
B46: Ic_S2_P4E.1_K4.1_C4.1_H4.1_A4.1_[A6T]_[T7G]_F4.1_T4.1 (ssRNA)
RNA: B5 RNA with A28U, A32U, A33U, U34G
B47: Ia_S2_P4E.1_K4.1_C4.1_H4.1_A4.1_[A6C]_F4.1_T4.1 (ssRNA)
RNA: B5 RNA with A28U, A32U, A33C
B48: Ib_S2_P4E.1_K4.1_C4.1_H4.1_[G2C]_A4.1_[T7C]_F4.1_T4.1 (ssRNA)
RNA: B5 RNA with A28U, G29C, A32U, U34C
B49: Ib_S2_P4E.1_K4.1_C4.1_H4.1_[A4G]_A4.1_[T7C]_F4.1_T4.1 (ssRNA)
RNA: B5 RNA with A28U, A31G, A32U, U34C
B50: Ia_S2_P4E.1_K4.1_C4.1_H4.1_[A4T]_A4.1_F4.1_T4.1 (ssRNA)
RNA: B5 RNA with A28U, A31U, A32U
B51: Ib_S2_P4E.1_K4.1_C4.1_H4.1_[T1A]_A4.1_[A6T]_F4.1_T4.1 (ssRNA)
RNA: B5 RNA with A32U, A33U
B52: Ib_S2_P4E.1_K4.1_C4.1_H4.1_[A4G]_A4.1_[T7A]_F4.1_T4.1 (ssRNA)
RNA: B5 RNA with A28U, A31G, A32U, U34A
B53: Ib_S2_P4E.1_K4.1_C4.1_H4.1_A4.1_[T5C]_[A6T]_F4.1_T4.1 (ssRNA)
RNA: B5 RNA with A28U, A32C, A33U
B54: Ib_S2_P4E.1_K4.1_C4.1_H4.1_[A4G]_A4.1_[T7G]_F4.1_T4.1 (ssRNA)
RNA: B5 RNA with A28U, A31G, A32U, U34G
B55: Ib_S2_P4E.1_K4.1_C4.1_H4.1_[T3C]_A4.1_[T7G]_F4.1_T4.1 (ssRNA)
RNA: B5 RNA with A28U, U30C, A32U, U34G
B56: Ib_S2_P4E.1_K4.1_C4.1_H4.1_[A4G]_A4.1_[A6C]_F4.1_T4.1 (ssRNA)
RNA: B5 RNA with A28U, A31G, A32U, A33C
B57: Ic_S2_P4E.1_K4.1_C4.1_H4.1_A4.1_[A6C]_[T7A]_F4.1_T4.1 (ssRNA)
RNA: B5 RNA with A28U, A32U, A33C, U34A
B58: Ib_S2_P4E.1_K4.1_C4.1_H4.1_[A4C]_A4.1_[T7G]_F4.1_T4.1 (ssRNA)
RNA: B5 RNA with A28U, A31C, A32U, U34G

The binders below were run against T1, PUF4 RNA-binding domain (Saccharomyces cerevisiae, UniProt P25339 537-888) (assay: Mg; RNA-MaP; 20 mM Na-HEPES pH 7.4, 30 mM KOAc, 0.75 mM MgCl2, 0.1% Tween-20, 5% glycerol, 0.1 mg/mL BSA, 2 mM DTT; 25 C; 0.0125-409.6 nM protein). Details: tags: N-His6-TEV cleaved; C-SNAP kept, Cy3B-labelled; label: tethered on chip by stalled RNA polymerase.
T1 sequence: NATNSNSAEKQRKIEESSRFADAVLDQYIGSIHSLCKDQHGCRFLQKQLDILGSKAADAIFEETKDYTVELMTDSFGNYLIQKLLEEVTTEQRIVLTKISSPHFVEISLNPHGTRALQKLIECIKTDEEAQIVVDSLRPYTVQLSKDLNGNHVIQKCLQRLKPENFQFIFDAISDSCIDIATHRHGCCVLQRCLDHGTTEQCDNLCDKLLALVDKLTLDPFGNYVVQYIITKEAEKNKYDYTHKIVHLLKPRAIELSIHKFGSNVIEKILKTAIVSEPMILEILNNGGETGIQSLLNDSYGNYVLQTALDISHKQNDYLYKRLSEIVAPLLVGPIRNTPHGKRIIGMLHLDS

| Binder | Kd [µM] |
| --- | --- |
| B1 | 0.321 |
| B2 | 0.0644 |
| B3 | 0.0646 |
| B4 | 0.742 |
| B5 | 0.657 |
| B6 | 0.497 |
| B7 | 0.0286 |
| B8 | 0.00271 |
| B9 | 0.795 |
| B10 | 0.55 |
| B11 | 0.000902 |
| B12 | 0.000912 |
| B13 | 0.000884 |
| B14 | 0.0231 |
| B15 | 1.01 |
| B16 | > 2.3 |
| B17 | 0.00275 |
| B18 | 0.00255 |
| B19 | 0.000874 |
| B20 | 0.00438 |

| Binder | Kd [µM] |
| --- | --- |
| B21 | 0.00207 |
| B22 | 0.000279 |
| B23 | 0.00176 |
| B24 | 0.00262 |
| B25 | 0.0554 |
| B26 | 0.00121 |
| B27 | 0.016 |
| B28 | 0.00848 |
| B29 | 0.154 |
| B30 | 0.00183 |
| B31 | 0.132 |
| B32 | 0.0308 |
| B33 | 0.0802 |
| B34 | 0.00689 |
| B35 | 0.00604 |
| B36 | 0.00411 |
| B37 | 0.001 |
| B38 | 0.777 |
| B39 | 0.126 |
| B40 | 0.303 |

| Binder | Kd [µM] |
| --- | --- |
| B41 | 1.39 |
| B42 | 0.0146 |
| B43 | 1.9 |
| B44 | 1.15 |
| B45 | > 2.3 |
| B46 | 0.00485 |
| B47 | 0.00121 |
| B48 | 0.19 |
| B49 | 0.00104 |
| B50 | 0.00439 |
| B51 | 0.739 |
| B52 | 0.00579 |
| B53 | 0.000795 |
| B54 | 0.00512 |
| B55 | 0.616 |
| B56 | 0.0082 |
| B57 | 0.000595 |
| B58 | 0.0502 |
